± gives the uncertainty stated by the source.
B1: POU domain, class 5, transcription factor 1, residues 134 to 212; numbered along this chain, Q01860 (parent)
chain: EESQDIKALQKELEQFAKLLKQKRITLGYTQADVGLTLGVLFGKVFSQTTICRFEALQLSFKNMCKLRPLLQKWVEEAD
B2: Histone-lysine N-methyltransferase SETD2, residues 2382 to 2430; numbered along this chain, Q9BYW2 (parent)
chain: SPPKPKTIVLPPNWKTARDPEGKIYYYHVITRQTQWDPPTWESPGDDAS

Variants of: B1
Assay: abundance fitness (aPCA) (normalised: wild type 0, dead -1); higher = more abundant; growth selection in yeast, the domain comes from the species named
Details: Homo sapiens

Question: Which abundance fitness does the source give for A78I here?
Answer: Its abundance fitness is 0.292 ± 0.24.

Question: With A78S as the variant, how does the abundance fitness read?
Answer: The abundance fitness was -0.13 ± 0.16.

Question: Which abundance fitness does the source give for A78T here?
Answer: The abundance fitness was -0.014 ± 0.26.

Question: Which abundance fitness does the source give for A78V here?
Answer: Its abundance fitness is 0.216 ± 0.092.

Question: Which abundance fitness does the source give for A78M here?
Answer: The abundance fitness was -0.033 ± 0.14.

Question: Which abundance fitness does the source give for A78G here?
Answer: Its abundance fitness is -0.304 ± 0.12.

Question: Which abundance fitness does the source give for A78P here?
Answer: The abundance fitness was -0.549 ± 0.23.

Question: For A78R, which abundance fitness is on record?
Answer: Its abundance fitness is -0.289 ± 0.13.

Question: Which abundance fitness does the source give for A78E here?
Answer: The abundance fitness was -0.06 ± 0.23.

Question: Which abundance fitness does the source give for A78Q here?
Answer: Its abundance fitness is 0.053 ± 0.27.

Question: Which abundance fitness does the source give for A78C here?
Answer: Its abundance fitness is -0.36 ± 0.35.

Question: For D79A, which abundance fitness is on record?
Answer: Its abundance fitness is -0.741 ± 0.25.

Question: For D79C, which abundance fitness is on record?
Answer: Its abundance fitness is -0.509 ± 0.35.

Question: With D79S as the variant, how does the abundance fitness read?
Answer: Its abundance fitness is -0.374 ± 0.22.

Question: With D79R as the variant, how does the abundance fitness read?
Answer: The abundance fitness was -0.187 ± 0.18.

Question: With D79T as the variant, how does the abundance fitness read?
Answer: Its abundance fitness is -0.122 ± 0.21.

Question: With D79E as the variant, how does the abundance fitness read?
Answer: The abundance fitness was -0.067 ± 0.21.

Question: With D79P as the variant, how does the abundance fitness read?
Answer: Its abundance fitness is 0.393 ± 0.19.

Question: Which abundance fitness does the source give for D79V here?
Answer: The abundance fitness was 0.111 ± 0.13.

Question: Which abundance fitness does the source give for D79Y here?
Answer: The abundance fitness was -0.505 ± 0.49.

Question: For D79G, which abundance fitness is on record?
Answer: The abundance fitness was -0.312 ± 0.13.

Question: For E77N, which abundance fitness is on record?
Answer: Its abundance fitness is 0.718 ± 0.33.

Question: Which abundance fitness does the source give for E77R here?
Answer: The abundance fitness was -0.108 ± 0.078.

Question: With E77M as the variant, how does the abundance fitness read?
Answer: Its abundance fitness is 0.037 ± 0.17.

Question: For E77W, which abundance fitness is on record?
Answer: Its abundance fitness is 0.226 ± 0.076.

Question: With E77T as the variant, how does the abundance fitness read?
Answer: The abundance fitness was -0.129 ± 0.19.

Question: With E77Y as the variant, how does the abundance fitness read?
Answer: Its abundance fitness is 0.096 ± 0.18.

Question: With E77P as the variant, how does the abundance fitness read?
Answer: The abundance fitness was -0.264 ± 0.17.

Question: With E77Q as the variant, how does the abundance fitness read?
Answer: The abundance fitness was 0.184 ± 0.12.

Question: For E77V, which abundance fitness is on record?
Answer: The abundance fitness was -0.161 ± 0.12.

Variants of: B2
Assay: as above
Details: Homo sapiens

Question: With L10F as the variant, how does the abundance fitness read?
Answer: The abundance fitness was -0.142 ± 0.1.

Question: Which abundance fitness does the source give for L10H here?
Answer: The abundance fitness was -0.255 ± 0.1.

Question: For P38A, which abundance fitness is on record?
Answer: The abundance fitness was -0.126 ± 0.036.

Question: With V29S as the variant, how does the abundance fitness read?
Answer: Its abundance fitness is -0.002 ± 0.035.

Question: With V29L as the variant, how does the abundance fitness read?
Answer: Its abundance fitness is -0.287 ± 0.053.

Question: For V29N, which abundance fitness is on record?
Answer: Its abundance fitness is -0.644 ± 0.26.

Question: For V29C, which abundance fitness is on record?
Answer: The abundance fitness was -0.074 ± 0.064.

Question: For V29W, which abundance fitness is on record?
Answer: The abundance fitness was -0.564 ± 0.068.

Question: Which abundance fitness does the source give for G22E here?
Answer: The abundance fitness was -1.1 ± 0.19.

Question: For G22V, which abundance fitness is on record?
Answer: The abundance fitness was -0.782 ± 0.088.

Question: With G22C as the variant, how does the abundance fitness read?
Answer: Its abundance fitness is -0.882 ± 0.17.

Question: For G22M, which abundance fitness is on record?
Answer: The abundance fitness was -0.636 ± 0.14.

Question: With Q33M as the variant, how does the abundance fitness read?
Answer: The abundance fitness was -0.614 ± 0.12.

Question: Which abundance fitness does the source give for Q33N here?
Answer: The abundance fitness was -0.117 ± 0.14.

Question: With D37F as the variant, how does the abundance fitness read?
Answer: Its abundance fitness is -0.68 ± 0.15.

Question: With D37N as the variant, how does the abundance fitness read?
Answer: Its abundance fitness is -0.298 ± 0.18.

Question: With W14E as the variant, how does the abundance fitness read?
Answer: Its abundance fitness is -0.868 ± 0.078.

Question: Which abundance fitness does the source give for W14S here?
Answer: The abundance fitness was -0.925 ± 0.1.

Question: With W14L as the variant, how does the abundance fitness read?
Answer: The abundance fitness was -0.925 ± 0.06.

Question: Which abundance fitness does the source give for S49N here?
Answer: Its abundance fitness is -0.696 ± 0.2.

Question: Which abundance fitness does the source give for S49F here?
Answer: The abundance fitness was -0.391 ± 0.099.

Question: With S49C as the variant, how does the abundance fitness read?
Answer: The abundance fitness was -0.467 ± 0.14.

Question: With S49Q as the variant, how does the abundance fitness read?
Answer: Its abundance fitness is -0.031 ± 0.2.

Question: Which abundance fitness does the source give for D19Y here?
Answer: The abundance fitness was -0.601 ± 0.095.

Question: With D19Q as the variant, how does the abundance fitness read?
Answer: Its abundance fitness is -0.442 ± 0.039.

Question: With D19S as the variant, how does the abundance fitness read?
Answer: The abundance fitness was -0.103 ± 0.043.

Question: Which abundance fitness does the source give for K4W here?
Answer: The abundance fitness was -0.798 ± 0.081.

Question: For K4P, which abundance fitness is on record?
Answer: The abundance fitness was -0.386 ± 0.1.

Question: With T34V as the variant, how does the abundance fitness read?
Answer: The abundance fitness was -0.075 ± 0.052.

Question: For T34H, which abundance fitness is on record?
Answer: Its abundance fitness is -0.059 ± 0.064.

Question: For T34Y, which abundance fitness is on record?
Answer: The abundance fitness was -0.52 ± 0.16.

Question: For T34C, which abundance fitness is on record?
Answer: The abundance fitness was -0.109 ± 0.1.

Question: With T34F as the variant, how does the abundance fitness read?
Answer: The abundance fitness was -0.059 ± 0.061.

Question: For N13E, which abundance fitness is on record?
Answer: Its abundance fitness is -0.61 ± 0.15.

Question: Which abundance fitness does the source give for D47S here?
Answer: Its abundance fitness is 0.037 ± 0.056.

Question: For D47I, which abundance fitness is on record?
Answer: The abundance fitness was -0.337 ± 0.075.

Question: With D47M as the variant, how does the abundance fitness read?
Answer: Its abundance fitness is -0.226 ± 0.077.

Question: With D47N as the variant, how does the abundance fitness read?
Answer: Its abundance fitness is -0.241 ± 0.062.

Question: With Y26H as the variant, how does the abundance fitness read?
Answer: Its abundance fitness is -0.618 ± 0.13.

Question: Which abundance fitness does the source give for Y26V here?
Answer: Its abundance fitness is -0.585 ± 0.074.

Question: Which abundance fitness does the source give for Y26E here?
Answer: Its abundance fitness is -0.981 ± 0.077.

Question: With Y26A as the variant, how does the abundance fitness read?
Answer: The abundance fitness was -0.865 ± 0.059.

Question: For P44K, which abundance fitness is on record?
Answer: The abundance fitness was -0.128 ± 0.1.

Question: Which abundance fitness does the source give for P44T here?
Answer: Its abundance fitness is -0.103 ± 0.083.

Question: With P44S as the variant, how does the abundance fitness read?
Answer: Its abundance fitness is -0.166 ± 0.054.

Question: With P44R as the variant, how does the abundance fitness read?
Answer: The abundance fitness was -0.031 ± 0.054.

Question: For R18G, which abundance fitness is on record?
Answer: The abundance fitness was -0.79 ± 0.095.

Question: With R18T as the variant, how does the abundance fitness read?
Answer: The abundance fitness was -0.112 ± 0.055.

Question: With R18I as the variant, how does the abundance fitness read?
Answer: Its abundance fitness is -0.095 ± 0.15.

Question: Which abundance fitness does the source give for R18F here?
Answer: The abundance fitness was -0.424 ± 0.094.

Question: For T16Q, which abundance fitness is on record?
Answer: The abundance fitness was 0.136 ± 0.064.

Question: With T16W as the variant, how does the abundance fitness read?
Answer: The abundance fitness was -0.026 ± 0.052.

Question: Which abundance fitness does the source give for T16C here?
Answer: Its abundance fitness is -0.213 ± 0.12.

Reference: the Human Domainome abundance scans (Beltran et al. 2025)
